Biological target: T1, COL6A3 (peptide named COL6A3-642) peptide on HLA-A*02:01 (human)
T1 peptide: FLLDGSANV
Assay: multimer staining

B1: COL6A3-642 C4 TCR (TRAV1-2*01F-TRBV9*01F) (TCR, V domains shown)
Valpha: GQNIDQPTEMTATEGAIVQINCTYQTSGFNGLFWYQQHAGEAPTFLSYNVLDGLEEKGRFSSFLSRSKGYSYLLLKELQMKDSASYLCAVRADRGSTLGRLYFGRGTQLTVWP
Vbeta: DSGVTQTPKHLITATGQRVTLRCSPRSGDLSVYWYQQSLDQGLQFLIQYYNGEERAKGNILERFSAQQFPDLHSELNLSSLELGDSALYFCASSVDGGASGEQFFGPGTRLTVL
Does B1 bind?
Result: recognises
